According to patent US20250129140A1 (ICAHN SCHOOL OF MEDICINE AT MOUNT SINAI, published 2025):

B1: 15G11 (antibody, V domains shown)
VH: QVQLQESGPGLVKPSQTLSLTCTVSGGSISSGYYYWNWIRQHPGKGLECIGYIYYSGTTYYNPSLKSRLFISVDTSKNQFSLKLRSVTAADTAVYYCARGGLGAFDIWGQGTMVTVSS
VL: EIVLTQSPGTLSLSPGERATLSCRASQSVSSSYLAWYQQKPGQAPRLLIYGASSRAPGIPDRFSGTGSGTDFTLTISRLEPEDFAVYYCQQYGISPLTFGGGTKVEIK
notes: also called 15G11 (ms); anti-gH mAb 15G11
B2: 5C3 (antibody, V domains shown)
VH: QVQLQQPGAELVRPGASVKLSCKASGYTFTTYWMNWVKQRPGQGLEWIGMIDPSDSETHYNQMFKDKATLTVDTSSSTAYMQLSSLTSEDSAVYYCARGRSWFVYWGQGTLVTVSS
VL: DIVLTQSPASLAVSLGQRATISCRASKSVSSSGYSYVHWYQQKPGQPPKLLIYLASNLESGVPARFSGSGSGTDFTLNIHSVEEEDAATYYCQHNRELPYTFGGGTKLEIKR
B3: 14E1 (antibody, V domains shown)
VH: QVQLVQSGAEVKKPGASVKVSCKASGYTFTSYSISWVRQAPGQGLEWMGWINTYNGNTNYAQRVQARVTMTTDTSTSTAYMELRSLRSDDTAVYYCARDHGFFFDYWGQGNLVTVSS
VL: DIQLTQSPSFLSASVGDRVTITCWASQGISSYLAWYQQKPGKAPKLLIYAASTLQSGVPSRFSGSGSGTEFTLTISSLQPEDFATYYCQQLNSYPYTFGQGTQLEIK
notes: also called 14E1 (ms)
B4: 13G1 (antibody, V domains shown)
VH: QVTLKESGPVLVKPTETLTLTCTVSGFSLYNARMGVTWIRQPPGKALEWLAHIFSNDERSYTSSLKNRLTISKDTSKSQVVLTMTNMDPVDTATYYCARIDYSNYIGNWFDPWGQGTLVTVSS
VL: DIQMTQSPSSLSASVGDRVTITCRASQSISNYLNWYQQKPGKAPKLLIYAASSLQGGVPSRFSGSGSGTDFTLTISSLQPEDFTTYYCQQSYSTPFTFGGGTKVEIK
notes: also called 13G1 (ms); anti-gH mAb 13G1
B5: 9A12 (antibody, V domains shown)
VH: EVQLVESGGVLVQPGGSLRLSCAASGFTFSSHEMNWVRQAPGKGLEWISYISSTGSTIYDADSVKGRFTISRDNAKNSLYLQMNSLRAEDTAVYYCARSSGWYRNYSYGMDVWGQGTTVTVSS
VL: DIQMAQSPSSLSASVGDRVTITCRASQGIYNYLAWFQQKPGKAPKSLIYAASSLQTGVPSKFSGSGSGTDFTLTISNLQPEDFATYYCQQYNSFPRTFGQGTKVEIK
notes: also called 9A12 (ms); anti-gH mAb 9A12

How the values were obtained:
[1] = biological target: T1, gH/gL of HCMV strain AD169 (on virus AD169 and on reporter virus AD169R) (human cytomegalovirus (strain AD169), UniProt P12824 24-743; P16832 31-278); assay: cell-based or functional assay
[2] = biological target: T2, gH/gL of HCMV strain TB40/E (on virus) (human cytomegalovirus (strain TB40/E)); assay: cell-based or functional assay
[3] = biological target: T3, recombinant HCMV pentamer (strain VR1814) consisting of gH, gL, UL128, UL130 and UL131A (human cytomegalovirus (strain VR1814)); assay: BLI (Octet RED); antibody captured on anti-mouse Fc (AMC) biosensor, recombinant pentamer 100 µg/mL in solution; 1:1 model
T3 construct: also called recombinant pentamer; Native Antigen CMV-PENT-100

[4] = biological target: T1, gH/gL of HCMV strain AD169 (on virus …); assay: cell-based or functional assay; remark: listed apart in the source
[5] = biological target: T2, gH/gL of HCMV strain TB40/E (on virus); assay: cell-based or functional assay; remark: listed apart in the source
[6] = biological target: T1, gH/gL of HCMV strain AD169 (on virus …); assay: flow cytometry on ARPE-19 cells infected with AD169R (GFP reporter), 6 dpi, antibody 2 µg/mL, anti-mouse AF647 secondary
[7] = biological target: T1, gH/gL of HCMV strain AD169 (on virus …); assay: cell-based or functional assay; remark: listed apart in the source
[8] = biological target: T1, gH/gL of HCMV strain AD169 (on virus …); assay: cell-based or functional assay; remark: listed apart in the source
[9] = biological target: gH/gL of HCMV strain TR (on virus) (human cytomegalovirus (strain TR)); assay: cell-based or functional assay
[10] = biological target: T2, gH/gL of HCMV strain TB40/E (on virus); assay: cell-based or functional assay; remark: listed apart in the source
[11] = biological target: gH/gL of HCMV strain Towne (on virus) (human cytomegalovirus (strain Towne), UniProt P17176 30-742); assay: cell-based or functional assay
gH/gL of HCMV strain Towne (on virus), sequence (P17176 30-742): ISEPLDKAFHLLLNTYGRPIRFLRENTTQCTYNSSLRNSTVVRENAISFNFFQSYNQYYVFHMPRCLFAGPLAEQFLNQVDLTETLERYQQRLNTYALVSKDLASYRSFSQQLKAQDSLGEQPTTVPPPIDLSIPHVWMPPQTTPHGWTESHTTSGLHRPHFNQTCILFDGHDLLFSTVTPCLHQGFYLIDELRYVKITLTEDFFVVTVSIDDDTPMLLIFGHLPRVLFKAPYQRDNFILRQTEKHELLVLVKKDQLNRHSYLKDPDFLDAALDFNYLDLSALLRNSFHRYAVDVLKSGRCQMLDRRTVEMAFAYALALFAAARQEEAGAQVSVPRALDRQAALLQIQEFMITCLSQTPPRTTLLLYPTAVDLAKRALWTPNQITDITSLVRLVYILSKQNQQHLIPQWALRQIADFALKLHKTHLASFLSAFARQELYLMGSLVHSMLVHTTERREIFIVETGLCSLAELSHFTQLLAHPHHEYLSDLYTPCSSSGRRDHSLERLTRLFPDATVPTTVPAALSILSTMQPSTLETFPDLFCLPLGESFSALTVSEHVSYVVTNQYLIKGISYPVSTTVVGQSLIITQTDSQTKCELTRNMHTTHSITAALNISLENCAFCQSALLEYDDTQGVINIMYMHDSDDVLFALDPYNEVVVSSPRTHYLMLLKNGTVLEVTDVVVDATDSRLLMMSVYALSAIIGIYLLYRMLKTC

[12] = biological target: gH/gL of HCMV strain AD169 (on virus AD169 and on reporter virus AD169R) (human cytomegalovirus (strain AD169), UniProt P12824 24-743; P16832 31-278); assay: flow cytometry on ARPE-19 cells infected with AD169R (GFP reporter), 6 dpi, antibody 2 µg/mL, anti-mouse AF647 secondary; remark: listed apart in the source

Row | Binder | IC50(THP-1) AD169R, virus neutralization [1] [µg/mL] | IC50(THP-1) TB40/E, virus neutralization [2] [µg/mL] | Kd [3] [nM] | koff [3] [s⁻¹] | kon [3] [M⁻¹ s⁻¹] | IC50(ARPE-19) AD169R, virus neutralization [4] [µg/mL] | IC50(HTR-svNeo) AD169R, virus neutralization [4] [µg/mL] | IC50(ARPE-19) TB40/E, virus neutralization [5] [µg/mL] | IC50(HTR-svNeo) TB40/E, virus neutralization [5] [µg/mL] | Q2, percent of cells GFP+ and Alexa Fluor 647+ [6] [%] | IC50 of infection, AD169R neutralization (murine constant regions) [7] [µg/mL] | neutralization of BADrUL131-C4 infection at the highest concentrations [7] [%] | IC50(MRC5/NHDF) AD169, virus neutralization [8] [µg/mL] | IC50(MRC5/NHDF) AD169R, virus neutralization [8] [µg/mL] | IC50(MRC5/NHDF) TR, virus neutralization [9] [µg/mL] | IC50(MRC5/NHDF) TB40/E, virus neutralization [10] [µg/mL] | IC50(MRC5/NHDF) Towne, virus neutralization [11] [µg/mL] | Q2, percent of cells GFP+ and Alexa Fluor 647+ [12] [%]
1 | B1 | 0.01 | 0.39 | 2.28 | 8.69e-05 | 38200 | 0.24 | 0.44 | 0.09 | 0.41 | 0.4 | 0.17 | > 90 | 0.31 | 0.51 | 3.51 | 0.5 | 0.87 | –
2 | B2 | – | – | – | – | – | – | – | – | – | – | – | – | – | – | – | – | – | 3.37
3 | B3 | 0.02 | – | 64.6 | 0.00158 | 24400 | 0.11 | 19.2 | 3.06 | > 50 | 3.68 | – | – | 0.91 | 1.78 | > 50 | 0.89 | > 50 | –
4 | B4 | 0.03 | 0.02 | 5.05 | 6.51e-05 | 12900 | 1.03 | 1.82 | 1.01 | 1.12 | 0.89 | – | > 90 | 15.9 | 0.58 | 3.26 | 0.89 | 1.09 | –
5 | B5 | 0.08 | – | 3.47 | 8.6e-05 | 24800 | 1.28 | ~1.8 | 1.1 | 0.72 | – | – | > 90 | 0.77 | 1.52 | 6.96 | 1.09 | 2.53 | –
